The record followed here is patent publication US20070243198A1 (ERA BIOTECH S A, published 2007).

For assay [1], the target named is human EGF receptor on MDA-MB231 breast cancer cells (human) (UniProt P00533). In words: cell-based or functional assay.
Assay [2] deals with T1, hGH binding protein provided by the kit (Active Bioactive Human Growth Hormone ELISA DSL-10-11100, Diagnostic … (UniProt P10912 19-256)).
T1 sequence (looked up): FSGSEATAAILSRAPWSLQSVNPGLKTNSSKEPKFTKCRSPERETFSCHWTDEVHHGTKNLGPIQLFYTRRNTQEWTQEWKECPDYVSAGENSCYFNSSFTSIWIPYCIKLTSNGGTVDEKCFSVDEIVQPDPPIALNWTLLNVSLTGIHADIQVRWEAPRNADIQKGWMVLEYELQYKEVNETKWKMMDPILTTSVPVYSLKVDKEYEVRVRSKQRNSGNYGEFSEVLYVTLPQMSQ
The experiment in a line: bioactivity ELISA based on binding to the kit's hGH binding protein (DSL-10-11100).

As for RX3-EGF fusion protein, in assay [1], the % proliferation with respect to Deprived cells (Mean), radioactive thymidine incorporation, 1.2 ng/mL is 146%.

B1: RX3 protein without a fusion partner (other)
chain: THTSGGCGCQPPPPVHLPPPVHLPPPVHLPPPVHLPPPVHLPPPVHLPPPVHVPPPVHLPPPPCHYPTQPPRPQPHPQPHPCPCQQPHPSPCQY
notes: also called control RX3 RPBLA preparations; isolated RX3 protein
Consider B1, for which the binding result in assay [2] is recorded as “no binding”.
